Test results from patent publication US10876130B2, “HPPD variants and methods of use” (Bayer CropScience LP, priority 2014, dated 2020).
“And” between values parts separate entries of the source, which are not always exact repeats. Identical values can stand only once.

Tests used:
HPPD enzymes [1] = assay: pyomelanin (brown color) colorimetric assay of HPPD enzymes overexpressed in E. coli, with tembotrione; type: cell-based; conditions: among Axmi309H mutants
Procedure: A specific, although non-limiting, type of assay that can be used to evaluate the HPPD sequences of the invention is a colorimetric assay. In this assay, a YT-broth-type culture medium with 1% agarose, 5 mM L-Tyrosine and 42 mM Succinate, which contains the selection agent for the vector pSE420 (Invitrogen, Karlsruhe, Germany) or a modified version of pSE420 (pSE420(RI)NX) is poured into deep well plates. E. coli culture in the exponentional growth phase which contains the vector pSE420-HPPDx (HPPDx means any gene coding for a putative HPPD enzyme/protein) is applied to each well.
Enzymes with improved tolerance to TBT were identified by this approach. The three-dimensional structure of Pseudomanas HPPD was studied to identify residues in the active site that were likely to be involved in substrate binding.
Briefly, overexpression of HPPD enzymes (in E. coli) on rich growth medium leads to the production of the compound pyomelanin. Pyomelanin is deep brown in color, therefore, inspection of HPPD enzymes grown on LB agar in a multi-well plate allows visual comparison of the enzymatic activity of HPPD enzymes. This experimental approach also allows varying concentrations of HPPD inhibitors (such as tembotrione) to be added to individual sample wells, which allows visual assessment of the tolerance of HPPD inhibitors by the randomized HPPD enzymes.

Soybean plants = assay: tolerance of soybean plants to mesotrione, spray test; type: in vivo
Procedure: Soybean plants expressing an HPPD inhibitor tolerant enzyme of the present invention, along with a gene conferring tolerance to glyphosate and a gene conferring tolerance to glufosinate, were tested for tolerance to mesotrione. A DeVries Tracker Sprayer was calibrated prior to each spraying. The chemical formulation used for mesotrione (MST) testing was Callisto® 4 SC formulation. Spray tests were conducted using 3× the field rate (equivalent to 9 fluid ounce per acre of the same herbicide formulation that containing 40% the active ingredient (AI), mesotrione), which equals 316 grams AI per hectare. Tolerance was evaluated one week after spraying. A tolerance rating of “0” was assigned to plants that their shoot apexes, newly emerged trifoliates and some axillary buds were completely bleached. A rating of “1” was assigned to plants having slight tolerance, i.e., the newest plant shoot tissues had some green and are not bleached completely. A rating of “2” was assigned to plants showing moderate tolerance, i.e., more than 50% of the leaf area of the top three trifoliates showing no chlorosis or bleaching damage. A rating of “3” was assigned to plants showing nearly perfect tolerance, i.e., less than 10% of the leaf area showing chlorosis or very slight bleaching.

HPPD enzymes [2] = conditions: for 125 μM HPP/500 μM HPP × 100 / 500 μM HPP, 5 μM TBT/500 μM HPP × 100: Table 3; for 125 μM HPP/500 μM HPP × 100: rate at limiting relative to high substrate; for 500 μM HPP, 5 μM TBT/500 μM HPP × 100 / 500 μM HPP + 5 μM TBT (as % of 500 μM HPP, dataset 1): rate with 5 μM tembotrione relative to rate without; for 500 μM HPP, dataset 1: enzymatic rate at high substrate (500 μM HPP), no inhibitor, measure of Vmax, E. coli extract; for 125 μM HPP (as % of 500 μM HPP, dataset 1): rate at limiting substrate relative to high substrate, measure of substrate affinity (Km); for 500 μM HPP + 5 μM TBT (as % of 500 μM HPP, dataset 1): resistance to tembotrione
Procedure: The in vitro kinetic assay couples the production of Homogentisic acid with the enzyme Homogentisate 1,2-dioxygenase (HGO). HGO converts homogentisic acid to maleoacetoacetate, which is easily quantified by UV absorption at 321 nm. The assay is carried out in real-time, and product can be quantified continuously in a 96-well spectrophotometer.
The kinetic assay was performed in two stages.
Experimentally, the first stage enzymatic assays were performed as follows. […] The cultures were incubated at 37 degrees C. When the OD reached 0.6-0.7, the temperature was decreased to 30 degrees C. and the cultures were incubated overnight. Cultures were sampled the next afternoon for the pyomelanin assay and the remaining culture was pelleted at 6500 rpm in an SA600 rotor, the supernatant was removed, and the pellets were frozen overnight at −20 degrees Celsius or until assay.
Just before assay, the pellets were resuspended in 1 ml of buffer (20 mM Hepes pH 7.0, 50 mM NaCl). Two ul of LYSONASE™ (Novagen) was added to each resuspended pellet, and then mixed. Two ml of buffer and 4 ul of LYSONASE™ were then added to the HGO pellet. The suspensions were incubated for 45 minutes at room temperature, and then frozen at −20 degrees for at least 1 hour. Then, the solutions were thawed at room temperature with occasional brief immersion in a 37 degree C. water bath and a little agitation. The cultures were spun down for 15 min at 14000 rpm in a Sorvall SA 600 rotor. The supernatants were carefully pipetted off the pellets (with care not to disturb the pellets), and transferred into 1 column of a 96 well plate, and 0.5 ml of buffer was added to each of the samples and pipetted up and down to mix. The HGO supernatant was collected and the reactions were performed in the following order. The HGO was added to the 500 μM HPP solution and the 500 μM solution+5 μM TBT. Immediately 100 ul of the 500 μM HPP solution was pipetted into even-numbered rows (5 reps) and 100 ul of the 500 μM HPP+5 μM TBT solution was pipetted into odd-numbered rows (5 reps). The reactions were divided between two 96-well plates to allow a sufficient number of samples to be analyzed (4 assays total in one 96-well plate, and 6 in another). Then, 100 ul of the enzyme solutions or buffer was pipetted first into a row of wells containing 500 μM HPP+5 μM TBT followed by gentle mixing by stirring with the pipette tips, and next into a row of wells containing 500 μM HPP followed by gentle mixing by stirring with the pipette tips. Product formation was measured by absorbance at 321 nm at 5 sec intervals. The reduced values (equivalent to the absorbance change over 50 sec, and calculated as OD/min) were analyzed. Five sets of data were collected. This was then repeated after addition of the HGO to the 125 μM HPP, using the same steps as above.
The enzymatic assay for each protein at 500 μM HPP is shown as milliOD units/minute, while the relative activity at 500 μM HPP+5 μM TBT, and also 125 μM HPP, are shown as a percentage of the activity at 500 μM HPP.

Molecule | tolerance to tembotrione in the brown color assay (HPPD enzymes [1]) | number of plants with tolerance rating 1 (Soybean plants; same spray test, 1 = slight tolerance, newest shoot tissues had some green) | number of plants with tolerance rating 2 (Soybean plants; same spray test, 2 = moderate tolerance, more than 50% of leaf area of top three trifoliates without chlorosis or bleaching) | number of plants with tolerance rating 3 (Soybean plants; same spray test, 3 = nearly perfect tolerance, less than 10% of leaf area showing chlorosis or very slight bleaching) | number of plants with tolerance rating 0 (Soybean plants; soybean expressing the clone, mesotrione (Callisto 4 SC) 316 grams AI per hectare (3× field rate), one week after spraying, 0 = completely bleached) | 125 μM HPP/500 μM HPP × 100 (HPPD enzymes [2]) | 500 μM HPP, 5 μM TBT/500 μM HPP × 100 (HPPD enzymes [2]) | 500 μM HPP, dataset 1 (HPPD enzymes [2]) | 125 μM HPP (as % of 500 μM HPP, dataset 1) (HPPD enzymes [2]) | 500 μM HPP + 5 μM TBT (as % of 500 μM HPP, dataset 1) (HPPD enzymes [2])
Axmi309H-PWG: Axmi309H protein containing E335P, G336W, and A340G; SEQ ID NO:21 (protein, variant HPPD) MADLYENPMGLMGFEFIEFASPTPGTLEPIFEIMGFTKVATHRSKNVHLYRQGAINLILNNEPHSVASYFAAEHGPSVCGMAFRVKDSQKAYNRALELGAQPIHIETGPMELNLPAIKGIGGAPLYLIDRFGEGSSIYDIDFVFLEGVDRNPVGAGLKIIDHLTHNVYRGRMAYWANFYEKLFNFREIRYFDIKGEYTGLTSKAMTAPDGMIRIPLNEESSKGAGQIEEFLMQFNGEGIQHVAFLTDDLVKTWDQLKKIGMRFMTAPPDTYYEMLEGRLPNHGEPVDQLQSRGILLDGASDKEDKRLLLQIFSETLMGPVFFEFIQRKGDDGFGPWNFKGLFESIERDQVRRGVLATE | most tolerant to tembotrione | 18 | 23 | 12 | 5 |  |  |  |  | 
PfHPPDEvo40: reference Pseudomonas fluorescens HPPD variant, SEQ ID NO:3 in Table 2 (protein, variant HPPD) MADLYENPMGLMGFEFIEFASPTPGTLEPIFEIMGFTKVATHRSKNVHLYRQGEINLILNNEPNSIASYFAAEHGPSVCGMAFRVKDSQKAYNRALELGAQPIHIDTGPMELNLPAIKGIGGAPLYLIDRFGEGSSIYDIDFVYLEGVERNPVGAGLKVIDHLTHNVYRGRMVYWANFYEKLFNFREARYFDIKGEYTGLTSKAMSAPDGMIRIPLNEESSKGAGQIEEFLMQFNGEGIQHVAFLTDDLVKTWDALKKIGMRFMTAPPDTYYEMLEGRLPDHGEPVDQLQARGILLDGSSVEGDKRLLLQIFSETLMGPVFFEFIQRKGDDGFGPSNFKELFESIERDQVRRGVLTAD |  |  |  |  |  | 57 | 44 | 16 milliOD units/minute and 19 milliOD units/minute | 61% and 65% | 42% and 65%
PfHPPDEvo41: reference Pseudomonas fluorescens HPPD variant, SEQ ID NO:4 in Table 2 (protein, variant HPPD) MADLYENPMGLMGFEFIEFASPTPGTLEPIFEIMGFTKVATHRSKNVHLYRQGEINLILNNEPNSIASYFAAEHGPSVCGMAFRVKDSQKAYNRALELGAQPIHIDTGPMELNLPAIKGIGGAPLYLIDRFGEGSSIYDIDFVYLEGVERNPVGAGLKVIDHLTHNVYRGRMVYWANFYEKLFNFREARYFDIKGEYTGLTSKAMSAPDGMIRIPLNEESSKGAGQIEEFLMQFNGEGIQHVAFLTDDLVKTWDALKKIGMRFMTAPPDTYYEMLEGRLPDHGEPVDQLQARGILLDGSSVEGDKRLLLQIFSETLMGPVFFEFIQRKGDDGFGPWNFAQLFESIERDQVRRGVLTAD |  |  |  |  |  | 50 | 39 | 64 milliOD units/minute and 73 milliOD units/minute | 34% and 54% | 28% and 52%
